{
  "source": "the supplement of paper PMC11865577",
  "data": [
    {"tested_on": "TO-N3 (biotin conjugate)", "assay": "pull-down binding Z-score (relative to library population); higher = stronger binding", "conditions": "RNA library: Library-2", "how_it_was_run": "(§1)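 An RNA library (1 μg) carrying a Cy5 or Cy3 end label was heat-folded in phosphate/NaCl/KCl buffer, then incubated for 60 min at 25 °C with streptavidin beads loaded with 100 pmol of biotin-conjugated small molecule. The beads were washed three times, and bound RNA was released in hot SDS and hybridised to a DNA barcode microarray for 20 h at 55.5 °C. Each binding score was derived by subtracting the signal from beads without compound, averaging the barcoded replicate probes after removing the highest and lowest, and expressing the result as a Z-score relative to the library mean and standard deviation.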", "values": [
      {"sequence": "GAAACAUCUUUUAC [hsa-mir-4514]", "pull-down binding Z-score": -0.551},
      {"sequence": "GAAAUAGGCUGCGAAGAUAACAGUAUUUC [hsa-mir-3942]", "pull-down binding Z-score": -0.979},
      {"sequence": "GAAAUGUGUGGAAGAUGGCAUUUC [hsa-mir-4482]", "pull-down binding Z-score": -0.302},
      {"sequence": "GAACACUAUUCCAUUGUGUUC [hsa-mir-588]", "pull-down binding Z-score": -1.33},
      {"sequence": "GAACCCAAGAAAAGCUGACUUGGAGGUCCC [hsa-mir-4667]", "pull-down binding Z-score": 1.47},
      {"sequence": "GAACCCAGGGAGCCAGACUGCCUGGGUUC [hsa-mir-607]", "pull-down binding Z-score": 0.843},
      {"sequence": "GAACUAACUAACCAGAACUAUUUUGUUC [hsa-mir-4652]", "pull-down binding Z-score": -0.0697},
      {"sequence": "GAACUUUUACGGUGAACCAGGAGGUUC [hsa-mir-629]", "pull-down binding Z-score": -0.0515},
      {"sequence": "GAAGAAGAAGAAGAAGAAGAAGAAGAAGAAGAAGAAGAAGAAGAAGAA [r(GAA)16]", "pull-down binding Z-score": 3.53},
      {"sequence": "GAAGAUUCUGAAAAUCACUAACU [hsa-mir-6878]", "pull-down binding Z-score": 0.273},
      {"sequence": "GAAGCACUGGUUAUGAUUUGCAUC [hsa-mir-3126]", "pull-down binding Z-score": 0.0904},
      {"sequence": "GAAGCCGCUCCCACCUGACCCUCACGGCCUC [hsa-mir-3605]", "pull-down binding Z-score": 1.33},
      {"sequence": "GAAGCCUUGAUCAGAAGCUAGGAAGGCUUC [hsa-mir-4762]", "pull-down binding Z-score": 0.654},
      {"sequence": "GAAGCGAGAUGUUUGUCUAAA [hsa-mir-6835]", "pull-down binding Z-score": 0.398},
      {"sequence": "GAAGCUCCUAUAGCUCCUGUAGCUUC [hsa-mir-578]", "pull-down binding Z-score": 0.407},
      {"sequence": "GAAGCUGUAAGACACAGCUAAGCUUU [hsa-mir-30d]", "pull-down binding Z-score": -0.169},
      {"sequence": "GAAGCUGUAAGGUGUUCAGAGGAGCUUU [hsa-mir-30e]", "pull-down binding Z-score": 0.977},
      {"sequence": "GAAGCUGUGAAGCCACAGAUGGGCUUU [hsa-mir-30a]", "pull-down binding Z-score": 0.224},
      {"sequence": "GAAGGAAGGCAAGGCUGUCUGUCCAUC [hsa-mir-4800]", "pull-down binding Z-score": 1.03},
      {"sequence": "GAAGGGAAGCUGGGAACCUGACUGCCUC [hsa-mir-6867]", "pull-down binding Z-score": 0.961},
      {"sequence": "GAAGGGGAGUUUCCCUCUAUUCCCUUC [hsa-mir-3679]", "pull-down binding Z-score": -0.0396},
      {"sequence": "GAAUGAAAAAAUGAAUCAUC [hsa-mir-421]", "pull-down binding Z-score": -0.29},
      {"sequence": "GAAUUCGAUUCAUCAAAGCGAGUC [hsa-mir-485]", "pull-down binding Z-score": 0.0539},
      {"sequence": "GAAUUCGCUUUAUUUAUGUUGAAUC [hsa-mir-377]", "pull-down binding Z-score": -0.944},
      {"sequence": "GACAAUAUGUAUAAUGUUCAUAAGUCAUUC [hsa-mir-384]", "pull-down binding Z-score": 0.444},
      {"sequence": "GACACCUGGAUUCAGAGAACAUGUC [hsa-mir-1276]", "pull-down binding Z-score": -0.156},
      {"sequence": "GACACUUUCACUAUAUAUAGUGGC [hsa-mir-3156-3]", "pull-down binding Z-score": -0.354},
      {"sequence": "GACAGGCUGGCCUCUGGAUGACCUGC [hsa-mir-5189]", "pull-down binding Z-score": 1.4},
      {"sequence": "GACAGGGAAAAGCACACAAGGAACUUGUC [hsa-mir-3909]", "pull-down binding Z-score": -0.0969},
      {"sequence": "GACAGGGCAGAGGGUUGCGCCCCCUC [hsa-mir-6511b-1_6511b-2_6511a-2_6511a-3_6511a-1_6511a-4]", "pull-down binding Z-score": 0.754},
      {"sequence": "GACAUCCCUCAUCUGUUUCUCACUGGUGUC [hsa-mir-6830]", "pull-down binding Z-score": -0.0985},
      {"sequence": "GACAUCUGGGCCAACUCUGAUCUC [hsa-mir-6515]", "pull-down binding Z-score": 0.113},
      {"sequence": "GACAUGCUCUGACUCCCCUGAUGUC [hsa-mir-6852]", "pull-down binding Z-score": 0.286},
      {"sequence": "GACCAAAAGUCAACAUUAAACAACAAAUCUUGGCC [hsa-mir-5708]", "pull-down binding Z-score": -1.02},
      {"sequence": "GACCCCCAUGCACCCCUGUGGGCCCCUGGCAUC [hsa-mir-1257]", "pull-down binding Z-score": 0.727},
      {"sequence": "GACCGUUGGCAUCUUAAUUACCCUC [hsa-mir-532]", "pull-down binding Z-score": -0.233},
      {"sequence": "GACCUGGAUGUGUAGGAGCUAAGACACACUCCAGGGG [hsa-mir-920]", "pull-down binding Z-score": 0.902},
      {"sequence": "GACGAUUUGAAUUAAUAAAUUC [hsa-mir-579]", "pull-down binding Z-score": 0.153},
      {"sequence": "GACGGCGCCCGCCCUGGCCCUGGC [hsa-mir-4745]", "pull-down binding Z-score": 1.16},
      {"sequence": "GACGGUGGGGGCCACGCUGACAGCCGC [hsa-mir-6804]", "pull-down binding Z-score": 2.24},
      {"sequence": "GACGUCCAAUCUCUUUGGGACGCC [hsa-mir-2682]", "pull-down binding Z-score": 0.419},
      {"sequence": "GACGUGAAGGGACCACAUCCCGCUUCAUGUC [hsa-mir-4697]", "pull-down binding Z-score": 0.374},
      {"sequence": "GACUGCUCAAGGUCAAAGGGGUC [hsa-mir-3918]", "pull-down binding Z-score": 0.367},
      {"sequence": "GACUGGACAACAUGAUGAGCCCAAACCAAUC [hsa-mir-5092]", "pull-down binding Z-score": 0.0433},
      {"sequence": "GACUUCCAUGACAUGAAAUAGGAAGUC [hsa-mir-616]", "pull-down binding Z-score": -1.12},
      {"sequence": "GACUUGAGAUUAUAGUC [hsa-mir-3685]", "pull-down binding Z-score": -0.0763},
      {"sequence": "GACUUUUCUAUUUUCCAAAAGC [hsa-mir-423]", "pull-down binding Z-score": -0.568},
      {"sequence": "GAGAAACUUGAGGUCUCUGGGAGUUGCUUAAACCAGUUGACCGUAACCUGGCCAGAGAAUUCUGAUAGUGUC [hsa-mir-6740]", "pull-down binding Z-score": 0.571},
      {"sequence": "GAGAACUCACGGUGCCUGUGGUUCGA [hsa-mir-3125]", "pull-down binding Z-score": 0.312},
      {"sequence": "GAGACAACUUCCCAGUCUC [hsa-mir-6717]", "pull-down binding Z-score": -1.17},
      {"sequence": "GAGACACCCGCUACCUGGUGUU [hsa-mir-4321]", "pull-down binding Z-score": -0.0464},
      {"sequence": "GAGACACUC [hsa-mir-6126]", "pull-down binding Z-score": -0.502},
      {"sequence": "GAGACGCUUUUAAAGUCUC [hsa-mir-3926-2]", "pull-down binding Z-score": -0.855},
      {"sequence": "GAGACUGCCCAAAGACUCUUCAGUAUC [hsa-mir-2681]", "pull-down binding Z-score": 0.738},
      {"sequence": "GAGACUUAGAAAUCCCUAAGUCUC [hsa-mir-3921]", "pull-down binding Z-score": -0.761},
      {"sequence": "GAGACUUUAAAAGCGUCUC [hsa-mir-3926-1]", "pull-down binding Z-score": -0.993},
      {"sequence": "GAGACUUUGUGAUUUGUCUCCAAAGCCUC [hsa-mir-6862-2_6862-1]", "pull-down binding Z-score": 0.0513},
      {"sequence": "GAGAGAGUGCACAGCCAGCUCAGGGAUUAAAGCUCUUUCUCUCUCUCUC [hsa-mir-7110]", "pull-down binding Z-score": 0.311},
      {"sequence": "GAGAGUGCUGUCUGAAUGCAAUGC [hsa-mir-500a]", "pull-down binding Z-score": 0.89},
      {"sequence": "GAGAGUGCUUUCUGAAUGCAAUGC [hsa-mir-501]", "pull-down binding Z-score": -0.14},
      {"sequence": "GAGAUGUGAUCCUGCCACAUCUC [hsa-mir-1304]", "pull-down binding Z-score": -0.261},
      {"sequence": "GAGCCCUGAGGGGCUC [hsa-mir-6087]", "pull-down binding Z-score": 0.283},
      {"sequence": "GAGCCCUUGCACACCACCAGCCUC [hsa-mir-6845]", "pull-down binding Z-score": 0.375},
      {"sequence": "GAGCCUGUCACAUCUCCAGACUC [hsa-mir-3925]", "pull-down binding Z-score": -0.15},
      {"sequence": "GAGCCUUAAAGGAUGAGGUA [hsa-mir-4280]", "pull-down binding Z-score": 0.362},
      {"sequence": "GAGCUCAGGAGCUC [hsa-mir-8052]", "pull-down binding Z-score": -0.9},
      {"sequence": "GAGCUGGAAGGAGUGGGCCUGGCUC [hsa-mir-6847]", "pull-down binding Z-score": 0.634},
      {"sequence": "GAGCUGGGUGGGGUGCCAAGCCU [hsa-mir-6819]", "pull-down binding Z-score": 2.43},
      {"sequence": "GAGCUUCGUGUACAUUAUCUAUUAGAAAAUGAAGUAC [hsa-mir-4724]", "pull-down binding Z-score": 0.0579},
      {"sequence": "GAGGAUGCAGGAGAGGAAGGGGGCUUCUUUUUGACGCCUACUUCAUCAGCUGCUCCUC [hsa-mir-4330]", "pull-down binding Z-score": 2.26},
      {"sequence": "GAGGCCAGAGGUGCCC [hsa-mir-4292]", "pull-down binding Z-score": 0.295},
      {"sequence": "GAGGCCUCUUGCCAUGGCCUCC [hsa-mir-7113]", "pull-down binding Z-score": -0.406},
      {"sequence": "GAGGGAUGAGUGCACUUCACCUGC [hsa-mir-4435-1_4435-2]", "pull-down binding Z-score": 0.375},
      {"sequence": "GAGGGGCAUGCACUGUGUUCACCCUG [hsa-mir-134]", "pull-down binding Z-score": 0.687}
    ]},
    {"tested_on": "TO-3-N3 (biotin conjugate)", "assay": "pull-down binding Z-score (relative to library population); higher = stronger binding", "conditions": "RNA library: Library-2", "how_it_was_run": "as §1", "values": [
      {"sequence": "GAAACAUCUUUUAC [hsa-mir-4514]", "pull-down binding Z-score": -0.428},
      {"sequence": "GAAAUAGGCUGCGAAGAUAACAGUAUUUC [hsa-mir-3942]", "pull-down binding Z-score": -0.872},
      {"sequence": "GAAAUGUGUGGAAGAUGGCAUUUC [hsa-mir-4482]", "pull-down binding Z-score": -0.346},
      {"sequence": "GAACACUAUUCCAUUGUGUUC [hsa-mir-588]", "pull-down binding Z-score": -0.971},
      {"sequence": "GAACCCAAGAAAAGCUGACUUGGAGGUCCC [hsa-mir-4667]", "pull-down binding Z-score": 1.21},
      {"sequence": "GAACCCAGGGAGCCAGACUGCCUGGGUUC [hsa-mir-607]", "pull-down binding Z-score": 1.05},
      {"sequence": "GAACUAACUAACCAGAACUAUUUUGUUC [hsa-mir-4652]", "pull-down binding Z-score": 0.249},
      {"sequence": "GAACUUUUACGGUGAACCAGGAGGUUC [hsa-mir-629]", "pull-down binding Z-score": 0.0537},
      {"sequence": "GAAGAAGAAGAAGAAGAAGAAGAAGAAGAAGAAGAAGAAGAAGAAGAA [r(GAA)16]", "pull-down binding Z-score": 1.7},
      {"sequence": "GAAGAUUCUGAAAAUCACUAACU [hsa-mir-6878]", "pull-down binding Z-score": 0.159},
      {"sequence": "GAAGCACUGGUUAUGAUUUGCAUC [hsa-mir-3126]", "pull-down binding Z-score": -0.087},
      {"sequence": "GAAGCCGCUCCCACCUGACCCUCACGGCCUC [hsa-mir-3605]", "pull-down binding Z-score": 1.3},
      {"sequence": "GAAGCCUUGAUCAGAAGCUAGGAAGGCUUC [hsa-mir-4762]", "pull-down binding Z-score": 0.782},
      {"sequence": "GAAGCGAGAUGUUUGUCUAAA [hsa-mir-6835]", "pull-down binding Z-score": 0.00611},
      {"sequence": "GAAGCUCCUAUAGCUCCUGUAGCUUC [hsa-mir-578]", "pull-down binding Z-score": 0.48},
      {"sequence": "GAAGCUGUAAGACACAGCUAAGCUUU [hsa-mir-30d]", "pull-down binding Z-score": -0.376},
      {"sequence": "GAAGCUGUAAGGUGUUCAGAGGAGCUUU [hsa-mir-30e]", "pull-down binding Z-score": 0.57},
      {"sequence": "GAAGCUGUGAAGCCACAGAUGGGCUUU [hsa-mir-30a]", "pull-down binding Z-score": -0.0778}
    ]}
  ]
}
